Sequences and labels used below:
B1: factor H-related protein 1 (FHR-1), recombinant (natural protein, human, UniProt Q03591 19-330, looked up)
chain: EATFCDFPKINHGILYDEEKYKPFSQVPTGEVFYYSCEYNFVSPSKSFWTRITCTEEGWSPTPKCLRLCFFPFVENGHSESSGQTHLEGDTVQIICNTGYRLQNNENNISCVERGWSTPPKCRSTDTSCVNPPTVQNAHILSRQMSKYPSGERVRYECRSPYEMFGDEEVMCLNGNWTEPPQCKDSTGKCGPPPPIDNGDITSFPLSVYAPASSVEYQCQNLYQLEGNKRITCRNGQWSEPPKCLHPCVISREIMENYNIALRWTAKQKLYLRTGESAEFVCKRGYRLSSRSHTLRTTCWDGKLEYPTCAKR
notes: Complement factor H-related protein 1, human; secreted from CHO cells, so probably the mature protein

Data set [1] concerns the molecule itself. The data set is described as follows: SAXS; Sbi-III-IV, C3d and FHR-1 combined 1:1:1 at 45 uM, in PBS; EOM ensemble modelling with P2 symmetry.
The target in the next data set is T1, Factor H (FH) (human, UniProt P08603 19-1231).
T1 construct: Complement factor H, human, plasma purified; also called plasma purified FH; source: bought: Complement Technologies (plasma purified)
Briefly: SPR; Biacore S200, CM5 chip, 25°C, HBST (10 mM HEPES, 150 mM NaCl, 0.005% Tween 20, pH 7.4); surfaces: 800 RU opsonized C3b, iC3b made from it, or 600 RU amine-coupled C3d; series of Sbi-III-IV WT or K173A (4,050 to 1.8 nM) flowed alone or co-injected with FH, FHR-1, FHR-2, FHR-5 or FH19-20 at 100, 12.5, 20, 25 or 20 nM. The following applies: both partners purified. (In general: Surface plasmon resonance follows binding to a sensor surface in real time, without labels.)

The target of data set [2] is B1. Described as above. The conditions noted are these: both partners purified.
For data set [3], the target named is T2, FH_(19−20) (C-terminal part of factor H, SCR 19-20), recombinant (human, UniProt P08603 1103-1231).
T2 construct: Complement factor H, human, SCR domains 19-20; also called fragment FH_(19−20); source: recombinant
T2 sequence: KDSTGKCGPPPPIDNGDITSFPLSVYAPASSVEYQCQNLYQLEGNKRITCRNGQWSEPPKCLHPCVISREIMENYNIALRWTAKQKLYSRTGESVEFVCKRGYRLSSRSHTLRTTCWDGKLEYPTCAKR
The description is as above. The following applies: both partners purified.

As for B1, the stoichiometry N – broadly, the number of molecules, sites or subunits per partner or assembly – in data set [1] stood at 2.

B2: Sbi-III-IV(K173A) (domain or fragment)
chain: not shown
notes: As used in SPR, ELISA and SAXS; also called K173A Sbi-III-IV; Sbi-III-IV mutant K173A; source: recombinant, from mutated pQE30:sbi-III-IV plasmid (QuikChange), purified
In the case of B2, the binding result (with Factor H (FH); in data set [2]; in data set [3]) was “binds” in each case.

These data come from article PMC6336717 (Frontiers in Immunology, 2018).
